According to the DeepSol protein solubility set:

Assay: soluble on expression in E. coli; label from the status in PepcDB or PDB records

Sequence	soluble on expression in E. coli
MGSSHHHHHHGKTIFVIVPTNEEQVAFLEALAKQDELNFDWQNPPTEPGQPVVILIPSDMVEWFLEMLKAKGIPFTVYVEEGGSENLYFQGGGGGGQSPRDAHTHTHTHTDAHKHVLVHICVCVCACVCVSYSLHSTLALSLPAFSPHCHSLRLGFHVFRKQRARTKTAAVAEQRGLRWTHTTARTAKSGWPPRGHTDTHTHTHTHTHITWEYASSGMTLVFEARRLPFGSISEVYAASIQPIVALHALDKLPLWDRCMLVAVLPVVQQRHSASAAAAPPSTVVRPSLTRNDSDNADAAAASLSSATVRAANHEERVNASPELAGAPSLEDVALALTIVRALDELEVVYDSSISTRAELEQQQQQQPSLPAASLAEAPRRAFKQPKKTSEELLMEQLLQERFTDTAPYLLESSDEGGENSADAAVDVAMCFTVKGESLGIGSATIFGGHGYHP	not soluble
MGSSHHHHHHGSLSKQIPLGIYEKALPAGECWLERLQLAKTLGFDFVEMSVDETDERLSRLDWSREQRLALVNAIVETGVRVPSMCLSAHRRFPLGSEDDAVRAQGLEIMRKAIQFAQDVGIRVIQLAGYDVYYQEANNETRRRFRDGLKESVEMASRAQVTLAMEIMDYPLMNSISKALGYAHYLNNPWFQLYPDIGNLSAWDNDVQMELQAGIGHIVAVHVKDTKPGVFKNVPFGEGVVDFERCFETLKQSGYCGPYLIEMWSETAEDPAAEVAKARDWVKARMAKAGMVEAA	soluble
MGSSHHHHHHSSGENLYFQGMTDPAPPPTALAAAKARMRELAASYGAGLPGRDTHSLMHGLDGITLTFMPMGQRDGAYDPEHHVILINSQVRPERQRFTLAHEISHALLLGDDDLLSDLHDEYEGDRLEQVIETLCNVGAAALLMPAELIDDLLTRFGPTGRALAELARRADVSATSALYALAERTAPPVIYAVCALSRQEDEGEGGGAKELTVRASSASAGVKYSLSAGTPVPDDHPAALALDTRLPLAQDSYVPFRSGRRMPAYVDAFPERQRVLVSFALPAGRSEPDADKPEAPGDQS	soluble
MGSSHHHHHHSSGLGPGGSHMASMSDSEVNQEAKPEVKPEVKPETHINLKVSDGSSEIFFKIKKTTPLRRLMEAFAKRQGKEMDSLRFLYDGIRIQADQTPEDLDMEDNDIIEAHREQIGGSLGRACKYENPARWSEQEQAIKGVYSSWVTDNILAMARPSSELLEKYHIIDQFLSHGIKTIINLQRPGEHASCGNPLEQESGFTYLPEAFMEAGIYFYNFGWKDYGVASLTTILDMVKVMTFALQEGKVAIHCHAGLGRTGVLIACYLVFATRMTADQAIIFVRAKRPNSIQTRGQLLCVREFTQFLTPLRNIFSEGHHHHHH	soluble
MGSSHHHHHHSSGLVPRGSHMAHQDALPRLPVPPLQQSLDYYLKALQPIVSEEEWAHTKQLVDEFQTSGGVGERLQKGLERRAKKMENWLSEWWLKTAYLQFRQPVVIYSSPGVILPKQDFVDLQGQLRFAAKLIEGVLDFKSMIDNETLPVEFLGGQPLCMNQYYQILSSCRVPGPKQDSVVNFLKSKRPPTHITVVHNYQFFELDVYHSDGTPLTSDQIFVQLEKIWNSSLQSNKEPVGILTSNHRNTWAKAYNNLIKDKVNRESVNSIQKSIFTVCLDKQVPRVSDDVYRNHVAGQMLHGGGSKFNSGNRWFDKTLQFIVAEDGSCGMVYEHAAAEGPPIVALVDHVMEYTKKPELVRSPMVPLPMPKKLRFNITPEIKNDIEKAKQNLSIMIQDLDIMMLTFHHFGKDFPKSEKLSPDAFIQVALQLAYYRIYGQACATYESASLRMFHLGRTDTIRSASIDSLAFVKGMGDSTVPEQQKVELLRKAVQAHRAYTDRAIRGEAFDRHLLGLKLQAIEDLVSMPDIFMDTSYAIAMHFNLSTSQVPAKTDCVMAFGPVVPDGYGICYNPMEAHINFSVSAYNSCAETNAARMAHYLEKALLDMRTLLQNHPRAKL	soluble
MGSSHHHHHHSSGLVPRGSHMASAVVQEVSAEAQAPAVVKNPPKLALKIDRADVNQLPRNFRMGSDKYVGVTKTGIMPTRKGMDTMNVSASSCFSEKELEAILKKVPVKPSQFYDVDLRGESHGYLNGTAVSWFANHDWGNDGRTEDIIIPLEKEQLASLKGSTVKSIYRFDDKKNVILSPVYVNYNKVRTEEEMVKQHGANYFRLTLQDHFRPDDPDVDKFLEFYKSLPKDAWLHYHCYAGMGRTTIFMVMHDILKNAKDVSFDDIIQRQKLIGIVDLSEIPDKKKNYGRKAYIERYQFVQHFYDYVKENPDLKTPYSVWAKKNKVNSWEPDYNGYIWRLDTKDRNQLPRNFRTMNSAFRTDVNVKKTGKGFTPTPTRKGLDTLYMSGSAEFSNGELQAMLPVLKQQAKGPIYIMDLRQETHGVFNGNAVSWYGLRDWGNLGKNKAEVLKDENSRLNAARGKSLIVAELDKDKMPIDPKPVKIESVMTEQQLVEKNGLHYYRIAATDHIWPSAANIDEFINFTRTMPANAWLHFHCQAGAGRTTAYMAMYDMMKNPDVSLGDILSRQYLLGGNYVAYEIAKPKPDQWKADYYHQKAHMIEKFYQYVQENHADGFKTSWSQWLAAHQDV	soluble
MGSSHHHHHHSSGLVPRGSHMASEVDKRREINNEHPLLMMPLYANGEEFNQGKYTFWGGDTLTGKWENIPDDLKPYTVIQLHPDDLPKRDGAARDFYEHMLEEAAKYVNPKTGKNEPIPVILTVYTAGNMPYYTSAHWLSTSWIDKMYQKYPNLHGIFSTANYWIWANDIENKAADYLKVSAKNGGYFIWAEQNNGSAIEKAFGKNGKIAFQKSVDKYWKNLIFMFKNTPAAEGNDSTTESYMKGLWLSNHTYQWGGLMDTWKWYETGKWKLFASGNIGKSQGDRQWLTEPESMLGEEALGVYLNGGVVYNFEHPAYTYGVNNKESLLFSEVIKEFFRYVIAHPAPSKEKVLEDTKVFIHGDYSNKGNGKFFVNVNTDREQTPLYMTGRYNVIPAIPGVLKTDKLKESVSSSRIQIKEITSPEFSSTQARKEYLNKLYPMNYEGDIFAQKLDNRWFVYNYKVNENVKQTGKLKFNSLEMNVEFEPHTYGIFERISNGLKVNLNNFRTNKDSLWSNAQDANQAKKLPQLTKKGAIKWIEEHYIKDTQFGEKRVTKIVLRGIDKLPTIHSLSGTNNSYDQPSLNFDQKNHMVTITINSNGNLEFELHF	soluble
MGSSHHHHHHSSGLVPRGSHMEELQKSIGHKPEPTDEEWELIKTVTEAHVATNAQGSHWKQKRKFLPEDIGQAPIVNAPEGGKVDLEAFSHFTKIITPAITRVVDFAKKLPMFCELPCEDQIILLKGCCMEIMSLRAAVRYDPESETLTLNGEMAVTRGQLKNGGLGVVSDAIFDLGMSLSSFNLDDTEVALLQAVLLMSSDRPGLACVERIEKYQDSFLLAFEHYINYRKHHVTHFWPKLLMKVTDLRMIGACHASRFLHMKVECPTELFPPLFLEVFED	soluble
MGSSHHHHHHSSGLVPRGSHMESAIGEHLQCPRTLTRRVPDTYTPPFPMWVGRADDALQQVVMGYLGVQFRDEDQRPAALQAMRDIVAGFDLPDGPAHHDLTHHIDNQGYENLIVVGYWKDVSSQHRWSTSTPIASWWESEDRLSDGLGFFREIVAPRAEQFETLYAFQEDLPGVGAVMDGISGEINEHGYWGSMRERFPISQTDWMQASGELRVIAGDPAVGGRVVVRGHDNIALIRSGQDWADAEADERSLYLDEILPTLQSGMDFLRDNGPAVGCYSNRFVRNIDIDGNFLDLSYNIGHWASLDQLERWSESHPTHLRIFTTFFRVAAGLSKLRLYHEVSVFDAADQLYEYINCHPGTGMLRDAVTIAEH	soluble
MGSSHHHHHHSSGLVPRGSHMGSEGGPALFQSDMTFKIFIDGEVNGQKFTIVADGSSKFPHGDFNVHAVCETGKLPMSWKPICHLIQYGEPFFARYPDGISHFAQECFPEGLSIDRTVRFENDGTMTSHHTYELDDTCVVSRITVNCDGFQPDGPIMRDQLVDILPNETHMFPHGPNAVRQLAFIGFTTADGGLMMGHFDSKMTFNGSRAIEIPGPHFVTIITKQMRDTSDKRDHVCQREVAYAHSVPRITSAIGSDED	soluble
MGSSHHHHHHSSGLVPRGSHMKKRIGIVGAGTAGLHLGLFLRQHDVDVTVYTDRKPDEYSGLRLLNTVAHNAVTVQREVALDVNEWPSEEFGYFGHYYYVGGPQPMRFYGDLKAPSRAVDYRLYQPMLMRALEARGGKFCYDAVSAEDLEGLSEQYDLLVVCTGKYALGKVFEKQSENSPFEKPQRALCVGLFKGIKEAPIRAVTMSFSPGHGELIEIPTLSFNGMSTALVLENHIGSDLEVLAHTKYDDDPRAFLDLMLEKLGKHHPSVAERIDPAEFDLANSSLDILQGGVVPAFRDGHATLNNGKTIIGLGDIQATVDPVLGQGANMASYAAWILGEEILAHSVYDLRFSEHLERRRQDRVLCATRWTNFTLSALSALPPEFLAFLQILSQSREMADEFTDNFNYPERQWDRFSSPERIGQWCSQFA	soluble
